The assay addresses T1, murine monoclonal antibody P3.
T1 construct: Murine IgM with kappa light chain from hybridoma ECACC 94113026, coated on the ELISA plate; FR4 segments are printed short; also called Mab P3; MAb P3
The experiment in a line: ELISA, plate coated with Mab P3, purified chimeric 1E10 detected with goat anti-human antibody-alkaline phosphatase, absorbance at 405 nm. On the procedure:
For recombinant MAb 1 E10, Microtiter plates were coated with Mab P3. After washing with PBST (saline phosphate buffered solution containing 0.05% Tween 20), unspecific binding was blockade with bovine sera albumin (BSA) 1% in PBST, incubated for one hour at 37° C.
The wells were washed and incubated for 1 hour at 37° C. with purified recombinant Mab 1E10. The wells were washed with PBST and a goat anti-human antibody conjugated with alkaline phosphatase was added and incubated at 37° C. for one hour. Finally, the wells were washed with PBST and the substrate buffer containing p-nitrophenylphosphate was added.
(In general: ELISA stands for enzyme-linked immunosorbent assay.)

T1 sequence (VH, as listed by the source, chain 1 of 2): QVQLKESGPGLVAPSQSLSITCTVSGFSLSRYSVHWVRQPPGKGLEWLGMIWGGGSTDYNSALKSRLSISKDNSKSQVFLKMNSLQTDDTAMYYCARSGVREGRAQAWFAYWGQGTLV
T1 sequence (V domain, as listed by the source, chain 2 of 2): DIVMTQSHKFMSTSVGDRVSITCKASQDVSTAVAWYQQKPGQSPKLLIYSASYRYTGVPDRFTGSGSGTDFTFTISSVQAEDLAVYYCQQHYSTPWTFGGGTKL

B1: chimeric Mab 1E10 (antibody, V domains shown)
VH: QVQLQQSGAELVKPGASVKLSCKASGYTFTSYDINWVRQRPEQGLEWIGWIFPGDGSTKYNEKFKGKATLTTDKSSSTAYMQLSRLTSEDSAVYFCAREDYYDNSYYFDYWGQGTTLTV
VL: DIQMTQTTSSLSASLGDRVTISCRASQDISNYLNWYQQKPDGTVKLLIYYTSRLHSGVPSRFSGSGSGTDYSLTISNLEQEDIATYFCQQGNTLPWTFGGGTKLESK
notes: FR4 segments are printed short, so the variable domains may lack their last residues; also called Mab 1E10 chimeric; recombinant MAb 1E10
For B1, the binding result is given as “binds”.

For the origin of these results see patent US20040253233A1 (CENTRO DE INMUNOLOGIA MOLECULAR CIM, published 2004).
